This note sets out measurements from the supplement of paper PMC10567573.

The data set in a line: protein stability index of a GFP-peptide fusion (GPS, HEK-293T) (PSI 1-6); higher = more stable.
The mark [1] stands for this setting: parent: IOH13764_23, c terminus: a fixed tail appended.
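Note: lentivirally expressed fusions sorted by FACS into six bins by GFP to DsRed ratio, PSI derived from sequencing read proportions per bin multiplied by bin number.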

B1: DYRK1B WT (peptide)
chain: KKVLNHGYDDDNHDYIVRSGERWL
As for B1, the protein stability index (parent: IOH14793_15, c terminus: a fixed tail appended) is 2.93.

B2: WDFY2 WT (peptide)
chain: FWNFKQMWDSKKIGLRQHHCRKCG
With B2, the protein stability index (parent: IOH13317_50, c terminus: a fixed tail appended) was found to be 2.

B3: GNB5 WT (peptide)
chain: YYPSGDAFASGSDDATCRLYDLRA
In the case of B3, the protein stability index (parent: IOH14466_42, c terminus: a fixed tail appended) amounted to 2.4.

B4: BEX1 WT (peptide)
chain: HSLRAVSTDPPHHDHHDEFCLMP
Turning to B4, the protein stability index (parent: IOH13216_18, c terminus: native) amounted to 2.27.

B5: CFHR2 WT (peptide)
chain: FVENGHSESSGQTHLEGDTVQIIC
As to B5, the protein stability index (parent: IOH13657_16, c terminus: a fixed tail appended) turned out to be 2.78.

B6: NR2F2 WT (peptide)
chain: NIPFFPDLQITDQVALLRLTWSEL
B6: the protein stability index (parent: IOH12813_39, c terminus: a fixed tail appended) was determined as 2.29.

B7: PDLIM4 WT (peptide)
chain: FLDERLYCESHAKARVKPPEGYDV
With B7, the protein stability index (parent: IOH13881_50, c terminus: a fixed tail appended) is 1.92.

B8: CD207 WT (peptide)
chain: MTVEKEAPDAHFTVDKQNISLWPR
For B8, under “parent: IOH12930_1, c terminus: a fixed tail appended”, the protein stability index stood at 3.23.

B9: TRIM29 WT (peptide)
chain: FAEKGELRKSIFSESRKPTVSIME
As for B9, where the note is “parent: IOH13948_21, c terminus: a fixed tail appended”, the protein stability index is 2.01.

B10: ZC3H15 WT (peptide)
chain: RKADFKAGKALVISGREVFEFRPE
On to B10, for which the protein stability index (parent: IOH14032_47, c terminus: a fixed tail appended) was found to be 2.82.

B11: TFE3 WT (peptide)
chain: FPSDHLGDLGDPFHLGLEDILMEE
Turning to B11, the protein stability index (parent: IOH14020_85, c terminus: a fixed tail appended) was 3.43.

B12: SNX8 WT (peptide)
chain: LHQETQLIHVYLPLTSHILRAFVN
For B12, the protein stability index (parent: IOH13259_67, c terminus: a fixed tail appended) came to 2.4.

B13: ZC3H15 WT (peptide)
chain: ENLFTGEDLDELEEELNTLDLEE
B13: the protein stability index (parent: IOH14032_69, c terminus: native) came out at 4.42.

B14: GNB5 WT (peptide)
chain: DINSVRYYPSGDAFASGSDDATCR
For B14, the protein stability index (parent: IOH14466_41, c terminus: a fixed tail appended) was 3.92.

B15: SNX8 WT (peptide)
chain: RMVPALPPKRMLGADREFIEARRR
On to B15, for which the protein stability index (parent: IOH13259_22, c terminus: a fixed tail appended) was 3.67.

B16: CCND2 WT (peptide)
chain: YFKCVQKDIQPYMRRMVATWMLEV
For the protein B16, the protein stability index (parent: IOH13739_8, c terminus: a fixed tail appended) was 2.47.

B17: BEX1 WT (peptide)
chain: EENMERIGEEVRQLMEKLREKQLS
For the protein B17, the protein stability index (parent: IOH13216_14, c terminus: a fixed tail appended) was found to be 4.44.

B18: FEM1B WT (peptide)
chain: TLAALLLNRSESDIRYLLGYVSQQ
Regarding B18, the protein stability index (parent: IOH13134_4, c terminus: a fixed tail appended) came to 2.44.

B19: TMEM40 WT (peptide)
chain: YGETDFHKQDGKAGLFSQEQYERN
Turning to B19, the protein stability index (parent: IOH12831_5, c terminus: a fixed tail appended) was determined as 4.04.

B20: STEAP1 WT (peptide)
chain: LWKMKPRRNLEEDDYLHKDTGETS
On to B20, for which, under “parent: IOH13052_3, c terminus: a fixed tail appended”, the protein stability index came to 4.46.

B21: ZNF193 WT (peptide)
chain: QKRYHCKECGKVFSQSAGLIQHQR
Regarding B21, where the note is “parent: IOH12838_52, c terminus: a fixed tail appended”, the protein stability index amounted to 3.14.

B22: TLE6 WT (peptide)
chain: FWHDTLTEQLWRIFAGVHDEKAKP
For the protein B22, the protein stability index (parent: IOH13956_6, c terminus: a fixed tail appended) is 1.76.

B23: ANKRD40 WT (peptide)
chain: YQELLRVCCCELGVNPDQVEKIRK
With B23, the protein stability index (parent: IOH13159_49, c terminus: a fixed tail appended) came to 2.07.

B24: TCAP WT (peptide)
chain: YQRVLPLPIFTPAKMGATKEERED
With B24, the protein stability index (parent: IOH13813_15, c terminus: a fixed tail appended) amounted to 2.04.

B25: ANKRD40 WT (peptide)
chain: VRIQNPSLRENDFIEIELDRQELT
As for B25, where the note is “parent: IOH13159_45, c terminus: a fixed tail appended”, the protein stability index is 2.38.

B26: DULLARD WT (peptide)
chain: LVVFTASMEIYGSAVADKLDNSRS
Turning to B26, under “parent: IOH12711_22, c terminus: a fixed tail appended”, the protein stability index was determined as 2.76.

B27: STX5 WT (peptide)
chain: RSEFTLMAKRIGKDLSNTFAKLEK
Consider B27, for which the protein stability index (parent: IOH14584_7, c terminus: a fixed tail appended) turned out to be 2.17.

B28: ANKRD40 WT (peptide)
chain: SLRENDFIEIELDRQELTYQELLR
Take B28: the protein stability index (parent: IOH13159_46, c terminus: a fixed tail appended) was 2.87.

B29: STX5 WT (peptide)
chain: ESTIVELGSIFQQLAHMVKEQEET
In the case of B29, where the note is “parent: IOH14584_38, c terminus: a fixed tail appended”, the protein stability index was 2.04.

B30: RAB11A WT (peptide)
chain: AVPTDEARAFAEKNGLSFIETSAL
Take B30: under setting [1], the protein stability index turned out to be 2.34.

B31: STEAP1 WT (peptide)
chain: WMLTRKQFGLLSFFFAVLHAIYSL
Regarding B31, the protein stability index (parent: IOH13052_27, c terminus: a fixed tail appended) was 1.71.

B32: TBX6 WT (peptide)
chain: AFLELPHGSGGSGYPAAPPAVPFA
On to B32, for which the protein stability index (parent: IOH14639_65, c terminus: a fixed tail appended) was 2.31.

B33: SNX8 WT (peptide)
chain: VVLKLFLSFSGSDVQNKLKESAQC
B33: the protein stability index (parent: IOH13259_29, c terminus: a fixed tail appended) came out at 2.49.

B34: TFE3 WT (peptide)
chain: FHLGLEDILMEEEEGVVGGLSGGA
On to B34, for which the protein stability index (parent: IOH14020_87, c terminus: a fixed tail appended) worked out at 3.6.

B35: ANKRD40 WT (peptide)
chain: VCCCELGVNPDQVEKIRKLPNTLL
On to B35, for which the protein stability index (parent: IOH13159_50, c terminus: a fixed tail appended) is 1.91.

B36: GLT8D2 WT (peptide)
chain: QEAKLLHWNGRHKPWDFPSVHNDL
On to B36, for which the protein stability index (parent: IOH13397_52, c terminus: a fixed tail appended) was 2.77.

B37: NR2F2 WT (peptide)
chain: VAHVESLQEKSQCALEEYVRSQYP
Take B37: the protein stability index (parent: IOH12813_56, c terminus: a fixed tail appended) was 3.61.

B38: KRT33B WT (peptide)
chain: PAVDLNQVLNETRNQYEALVETNR
Consider B38, for which, for the setting “parent: IOH13096_37, c terminus: a fixed tail appended”, the protein stability index was found to be 3.33.

B39: SMAD6 WT (peptide)
chain: SGLVRRLWRSRVVPDREEGGSGGG
Turning to B39, for the setting “parent: IOH13078_2, c terminus: a fixed tail appended”, the protein stability index is 4.12.

B40: TFE3 WT (peptide)
chain: ELPNIKREISETEAKALLKERQKK
For the protein B40, the protein stability index (parent: IOH14020_55, c terminus: a fixed tail appended) stood at 2.4.

B41: CSTF3 WT (peptide)
chain: YVPEKVKKAEKKLEENPYDLDAWS
For the protein B41, the protein stability index (parent: IOH12987_3, c terminus: a fixed tail appended) worked out at 2.14.

B42: DYRK1B WT (peptide)
chain: ARKYFERLPGGGWTLRRTKELRKD
Consider B42, for which the protein stability index (parent: IOH14793_58, c terminus: a fixed tail appended) worked out at 3.49.

B43: RAB11A WT (peptide)
chain: AVPTDEARAFAEKNNLSFIETSAL
With B43, the protein stability index under setting [1] is 2.72.

B44: TRIM9 WT (peptide)
chain: CVQCKMPVCYQCLEEGKHSSHEVK
Consider B44, for which the protein stability index (parent: IOH12704_41, c terminus: a fixed tail appended) was 3.89.

B45: DYRK1B WT (peptide)
chain: YQGPGTRRLQEVLGVQTGGPGGRR
Regarding B45, the protein stability index (parent: IOH14793_62, c terminus: a fixed tail appended) turned out to be 3.2.

B46: LRRC45 WT (peptide)
chain: DLSAANEKNLLLQNQVDELERKFR
B46: the protein stability index (parent: IOH13594_61, c terminus: a fixed tail appended) was found to be 4.05.

B47: LRRC45 WT (peptide)
chain: FQTRQEMTSMSAELKMRAIQAEER
As for B47, the protein stability index (parent: IOH13594_66, c terminus: a fixed tail appended) worked out at 4.

B48: ZNF193 WT (peptide)
chain: QCIECGKSFNRHCNLIRHQKIHTV
B48: the protein stability index (parent: IOH12838_62, c terminus: a fixed tail appended) was determined as 3.73.

B49: KRT33B WT (peptide)
chain: YQSYFKTIEELQQKILCSKSENAR
For the protein B49, for the setting “parent: IOH13096_18, c terminus: a fixed tail appended”, the protein stability index came out at 1.93.

B50: EFHC1 WT (peptide)
chain: NIYYYLEDDSMSVIEPVVENSGIL
On to B50, for which, under “parent: IOH14055_21, c terminus: a fixed tail appended”, the protein stability index was 2.15.

B51: TRIM9 WT (peptide)
chain: PRNSCITCPQCHRSLILDDRGLRG
Regarding B51, the protein stability index (parent: IOH12704_21, c terminus: a fixed tail appended) came out at 2.06.

B52: LARP4 WT (peptide)
chain: WTVANMEEIKKLTTDPDLILEVLR
Take B52: the protein stability index (parent: IOH13489_15, c terminus: a fixed tail appended) was 2.1.

B53: TRIM29 WT (peptide)
chain: RKCPVHGKTMELFCQTDQTCICYL
For the protein B53, the protein stability index (parent: IOH13948_38, c terminus: a fixed tail appended) turned out to be 2.05.
